In patent US20260049138A1 (Chugai, published 2026):

biological target: T1, CD3ε homodimer protein (human, UniProt P07766 23-126, limits assumed, sulfo-tag or biotin label in the ECL assays; amine-coupled to the chip in SPR); assay: SPR Biacore T200; CD3ε homodimer on CM4 chip;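 also: Single-residue variant antibodies injected as analyte over CD3ε homodimer immobilized by amine coupling, run at 25 °C in HBS-EP+ buffer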
T1 construct: also called human CD3ε homodimer protein; CD3 (CD3ε)
T1 sequence (P07766 23-126 limits assumed): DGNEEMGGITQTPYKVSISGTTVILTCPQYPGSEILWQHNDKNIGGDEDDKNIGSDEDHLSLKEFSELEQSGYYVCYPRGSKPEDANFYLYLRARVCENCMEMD

Row | ratio of amounts bound Z=Y/X (altered form / CE115HA000) | Binder
1 | 0.18 | CE115HA000 Y58S one-arm antibody (antibody, human IgG1, kappa, L234A L235A, N297A, name in Kabat numbering) heavy: QVQLVESGGGVVQPGRSLRLSCAASGFTFSNAWMHWVRQAPGKGLEWVAQIKAKSNNYATSYAESVKGRFTISRDDSKNSLYLQMNSLKTEDTAVYYCRYVHYGAYYGVDAWGQGTTVTVSSASTKGPSVFPLAPSSKSTSGGTAALGCLVKDYFPEPVTVSWNSGALTSGVHTFPAVLQSSGLYSLSSVVTVPSSSLGTQTYICNVNHKPSNTKVDKKVEPKSCDKTHTCPPCPAPEAAGGPSVFLFPPKPKDTLMISRTPEVTCVVVDVSHEDPEVKFNWYVDGVEVHNAKTKPREEQYASTYRVVSVLTVLHQDWLNGKEYKCKVSNKALPAPIEKTISKAKGQPREPQVYTLPPSRCELTKNQVSLSCAVKGFYPSDIAVEWESNGQPENNYKTTPPVLDSDGSFFLVSKLTVDKSRWQQGNVFSCSVMHEALHNHYTQKSLSLSPDYKDDDDK EPKSSDKTHTCPPCPAPELLGGPSVFLFPPKPKDTLMISRTPEVTCVVVDVSHEDPEVKFNWYVDGVEVHNAKTKPREEQYNSTYRVVSVLTVLHQDWLNGKEYKCKVSNKALPAPIEKTISKAKGQPREPQVCTLPPSRDELTKNQVSLWCLVKGFYPSDIAVEWESNGQPENNYKTTPPVLDSDGSFFLYSKLTVDKSRWQQGNVFSCSVMHEALHNRYTQKSLSLSP light: DIVMTQSPLSLPVTPGEPASISCRSSQSLVHSNRNTYLHWYQQKPGQAPRLLIYKVSNRFSGVPDRFSGSGSGTDFTLKISRVEAEDVGVYYCGQGTQVPYTFGQGTKLEIKRTVAAPSVFIFPPSDEQLKSGTASVVCLLNNFYPREAKVQWKVDNALQSGNSQESVTEQDSKDSTYSLSSTLTLSKADYEKHKVYACEVTHQGLSSPVTKSFNRGEC
2 | 0.85 | CE115HA000 Y59A one-arm antibody (antibody, human IgG1, kappa, L234A L235A, N297A, name in Kabat numbering) heavy: QVQLVESGGGVVQPGRSLRLSCAASGFTFSNAWMHWVRQAPGKGLEWVAQIKAKSNNYATYAAESVKGRFTISRDDSKNSLYLQMNSLKTEDTAVYYCRYVHYGAYYGVDAWGQGTTVTVSSASTKGPSVFPLAPSSKSTSGGTAALGCLVKDYFPEPVTVSWNSGALTSGVHTFPAVLQSSGLYSLSSVVTVPSSSLGTQTYICNVNHKPSNTKVDKKVEPKSCDKTHTCPPCPAPEAAGGPSVFLFPPKPKDTLMISRTPEVTCVVVDVSHEDPEVKFNWYVDGVEVHNAKTKPREEQYASTYRVVSVLTVLHQDWLNGKEYKCKVSNKALPAPIEKTISKAKGQPREPQVYTLPPSRCELTKNQVSLSCAVKGFYPSDIAVEWESNGQPENNYKTTPPVLDSDGSFFLVSKLTVDKSRWQQGNVFSCSVMHEALHNHYTQKSLSLSPDYKDDDDK EPKSSDKTHTCPPCPAPELLGGPSVFLFPPKPKDTLMISRTPEVTCVVVDVSHEDPEVKFNWYVDGVEVHNAKTKPREEQYNSTYRVVSVLTVLHQDWLNGKEYKCKVSNKALPAPIEKTISKAKGQPREPQVCTLPPSRDELTKNQVSLWCLVKGFYPSDIAVEWESNGQPENNYKTTPPVLDSDGSFFLYSKLTVDKSRWQQGNVFSCSVMHEALHNRYTQKSLSLSP light: DIVMTQSPLSLPVTPGEPASISCRSSQSLVHSNRNTYLHWYQQKPGQAPRLLIYKVSNRFSGVPDRFSGSGSGTDFTLKISRVEAEDVGVYYCGQGTQVPYTFGQGTKLEIKRTVAAPSVFIFPPSDEQLKSGTASVVCLLNNFYPREAKVQWKVDNALQSGNSQESVTEQDSKDSTYSLSSTLTLSKADYEKHKVYACEVTHQGLSSPVTKSFNRGEC
3 | 0.7 | CE115HA000 Y59D one-arm antibody (antibody, human IgG1, kappa, L234A L235A, N297A, name in Kabat numbering) heavy: QVQLVESGGGVVQPGRSLRLSCAASGFTFSNAWMHWVRQAPGKGLEWVAQIKAKSNNYATYDAESVKGRFTISRDDSKNSLYLQMNSLKTEDTAVYYCRYVHYGAYYGVDAWGQGTTVTVSSASTKGPSVFPLAPSSKSTSGGTAALGCLVKDYFPEPVTVSWNSGALTSGVHTFPAVLQSSGLYSLSSVVTVPSSSLGTQTYICNVNHKPSNTKVDKKVEPKSCDKTHTCPPCPAPEAAGGPSVFLFPPKPKDTLMISRTPEVTCVVVDVSHEDPEVKFNWYVDGVEVHNAKTKPREEQYASTYRVVSVLTVLHQDWLNGKEYKCKVSNKALPAPIEKTISKAKGQPREPQVYTLPPSRCELTKNQVSLSCAVKGFYPSDIAVEWESNGQPENNYKTTPPVLDSDGSFFLVSKLTVDKSRWQQGNVFSCSVMHEALHNHYTQKSLSLSPDYKDDDDK EPKSSDKTHTCPPCPAPELLGGPSVFLFPPKPKDTLMISRTPEVTCVVVDVSHEDPEVKFNWYVDGVEVHNAKTKPREEQYNSTYRVVSVLTVLHQDWLNGKEYKCKVSNKALPAPIEKTISKAKGQPREPQVCTLPPSRDELTKNQVSLWCLVKGFYPSDIAVEWESNGQPENNYKTTPPVLDSDGSFFLYSKLTVDKSRWQQGNVFSCSVMHEALHNRYTQKSLSLSP light: DIVMTQSPLSLPVTPGEPASISCRSSQSLVHSNRNTYLHWYQQKPGQAPRLLIYKVSNRFSGVPDRFSGSGSGTDFTLKISRVEAEDVGVYYCGQGTQVPYTFGQGTKLEIKRTVAAPSVFIFPPSDEQLKSGTASVVCLLNNFYPREAKVQWKVDNALQSGNSQESVTEQDSKDSTYSLSSTLTLSKADYEKHKVYACEVTHQGLSSPVTKSFNRGEC
4 | 0.94 | CE115HA000 Y59S one-arm antibody (antibody, human IgG1, kappa, L234A L235A, N297A, name in Kabat numbering) heavy: QVQLVESGGGVVQPGRSLRLSCAASGFTFSNAWMHWVRQAPGKGLEWVAQIKAKSNNYATYSAESVKGRFTISRDDSKNSLYLQMNSLKTEDTAVYYCRYVHYGAYYGVDAWGQGTTVTVSSASTKGPSVFPLAPSSKSTSGGTAALGCLVKDYFPEPVTVSWNSGALTSGVHTFPAVLQSSGLYSLSSVVTVPSSSLGTQTYICNVNHKPSNTKVDKKVEPKSCDKTHTCPPCPAPEAAGGPSVFLFPPKPKDTLMISRTPEVTCVVVDVSHEDPEVKFNWYVDGVEVHNAKTKPREEQYASTYRVVSVLTVLHQDWLNGKEYKCKVSNKALPAPIEKTISKAKGQPREPQVYTLPPSRCELTKNQVSLSCAVKGFYPSDIAVEWESNGQPENNYKTTPPVLDSDGSFFLVSKLTVDKSRWQQGNVFSCSVMHEALHNHYTQKSLSLSPDYKDDDDK EPKSSDKTHTCPPCPAPELLGGPSVFLFPPKPKDTLMISRTPEVTCVVVDVSHEDPEVKFNWYVDGVEVHNAKTKPREEQYNSTYRVVSVLTVLHQDWLNGKEYKCKVSNKALPAPIEKTISKAKGQPREPQVCTLPPSRDELTKNQVSLWCLVKGFYPSDIAVEWESNGQPENNYKTTPPVLDSDGSFFLYSKLTVDKSRWQQGNVFSCSVMHEALHNRYTQKSLSLSP light: DIVMTQSPLSLPVTPGEPASISCRSSQSLVHSNRNTYLHWYQQKPGQAPRLLIYKVSNRFSGVPDRFSGSGSGTDFTLKISRVEAEDVGVYYCGQGTQVPYTFGQGTKLEIKRTVAAPSVFIFPPSDEQLKSGTASVVCLLNNFYPREAKVQWKVDNALQSGNSQESVTEQDSKDSTYSLSSTLTLSKADYEKHKVYACEVTHQGLSSPVTKSFNRGEC
5 | 0.86 | CE115HA000 Y59E one-arm antibody (antibody, human IgG1, kappa, L234A L235A, N297A, name in Kabat numbering) heavy: QVQLVESGGGVVQPGRSLRLSCAASGFTFSNAWMHWVRQAPGKGLEWVAQIKAKSNNYATYEAESVKGRFTISRDDSKNSLYLQMNSLKTEDTAVYYCRYVHYGAYYGVDAWGQGTTVTVSSASTKGPSVFPLAPSSKSTSGGTAALGCLVKDYFPEPVTVSWNSGALTSGVHTFPAVLQSSGLYSLSSVVTVPSSSLGTQTYICNVNHKPSNTKVDKKVEPKSCDKTHTCPPCPAPEAAGGPSVFLFPPKPKDTLMISRTPEVTCVVVDVSHEDPEVKFNWYVDGVEVHNAKTKPREEQYASTYRVVSVLTVLHQDWLNGKEYKCKVSNKALPAPIEKTISKAKGQPREPQVYTLPPSRCELTKNQVSLSCAVKGFYPSDIAVEWESNGQPENNYKTTPPVLDSDGSFFLVSKLTVDKSRWQQGNVFSCSVMHEALHNHYTQKSLSLSPDYKDDDDK EPKSSDKTHTCPPCPAPELLGGPSVFLFPPKPKDTLMISRTPEVTCVVVDVSHEDPEVKFNWYVDGVEVHNAKTKPREEQYNSTYRVVSVLTVLHQDWLNGKEYKCKVSNKALPAPIEKTISKAKGQPREPQVCTLPPSRDELTKNQVSLWCLVKGFYPSDIAVEWESNGQPENNYKTTPPVLDSDGSFFLYSKLTVDKSRWQQGNVFSCSVMHEALHNRYTQKSLSLSP light: DIVMTQSPLSLPVTPGEPASISCRSSQSLVHSNRNTYLHWYQQKPGQAPRLLIYKVSNRFSGVPDRFSGSGSGTDFTLKISRVEAEDVGVYYCGQGTQVPYTFGQGTKLEIKRTVAAPSVFIFPPSDEQLKSGTASVVCLLNNFYPREAKVQWKVDNALQSGNSQESVTEQDSKDSTYSLSSTLTLSKADYEKHKVYACEVTHQGLSSPVTKSFNRGEC
6 | 0.16 | CE115HA000 Y97A one-arm antibody (antibody, human IgG1, kappa, L234A L235A, N297A, name in Kabat numbering) heavy: QVQLVESGGGVVQPGRSLRLSCAASGFTFSNAWMHWVRQAPGKGLEWVAQIKAKSNNYATYYAESVKGRFTISRDDSKNSLYLQMNSLKTEDTAVYYCRYVHAGAYYGVDAWGQGTTVTVSSASTKGPSVFPLAPSSKSTSGGTAALGCLVKDYFPEPVTVSWNSGALTSGVHTFPAVLQSSGLYSLSSVVTVPSSSLGTQTYICNVNHKPSNTKVDKKVEPKSCDKTHTCPPCPAPEAAGGPSVFLFPPKPKDTLMISRTPEVTCVVVDVSHEDPEVKFNWYVDGVEVHNAKTKPREEQYASTYRVVSVLTVLHQDWLNGKEYKCKVSNKALPAPIEKTISKAKGQPREPQVYTLPPSRCELTKNQVSLSCAVKGFYPSDIAVEWESNGQPENNYKTTPPVLDSDGSFFLVSKLTVDKSRWQQGNVFSCSVMHEALHNHYTQKSLSLSPDYKDDDDK EPKSSDKTHTCPPCPAPELLGGPSVFLFPPKPKDTLMISRTPEVTCVVVDVSHEDPEVKFNWYVDGVEVHNAKTKPREEQYNSTYRVVSVLTVLHQDWLNGKEYKCKVSNKALPAPIEKTISKAKGQPREPQVCTLPPSRDELTKNQVSLWCLVKGFYPSDIAVEWESNGQPENNYKTTPPVLDSDGSFFLYSKLTVDKSRWQQGNVFSCSVMHEALHNRYTQKSLSLSP light: DIVMTQSPLSLPVTPGEPASISCRSSQSLVHSNRNTYLHWYQQKPGQAPRLLIYKVSNRFSGVPDRFSGSGSGTDFTLKISRVEAEDVGVYYCGQGTQVPYTFGQGTKLEIKRTVAAPSVFIFPPSDEQLKSGTASVVCLLNNFYPREAKVQWKVDNALQSGNSQESVTEQDSKDSTYSLSSTLTLSKADYEKHKVYACEVTHQGLSSPVTKSFNRGEC
